Assay [1] has as its target T1, CD4 on human T cells (human, UniProt P01730 26-458).
T1 construct: whole, on cells
As to the kind of experiment: FACS on PBMC. The method, then: (§1) PBMC were incubated for 1 h on ice with the constructs RM and MR in various concentrations. After washing with PBS, cell bound constructs were detected with an antibody against 6×His (Dianova) or an antibody against RANTES (VL-1) followed by incubation with PE-labelled rabbit-anti-mouse F(ab) fragments (Dako R439). Binding of RM and MR to CD4 on T cells was detected by FACS analysis (FIG. 6A).

The target of another assay is T2, human CCR5 (human, UniProt P51681 1-352).
T2 construct: whole, on cells; also called CCR5 receptor
T2 sequence (P51681 whole entry): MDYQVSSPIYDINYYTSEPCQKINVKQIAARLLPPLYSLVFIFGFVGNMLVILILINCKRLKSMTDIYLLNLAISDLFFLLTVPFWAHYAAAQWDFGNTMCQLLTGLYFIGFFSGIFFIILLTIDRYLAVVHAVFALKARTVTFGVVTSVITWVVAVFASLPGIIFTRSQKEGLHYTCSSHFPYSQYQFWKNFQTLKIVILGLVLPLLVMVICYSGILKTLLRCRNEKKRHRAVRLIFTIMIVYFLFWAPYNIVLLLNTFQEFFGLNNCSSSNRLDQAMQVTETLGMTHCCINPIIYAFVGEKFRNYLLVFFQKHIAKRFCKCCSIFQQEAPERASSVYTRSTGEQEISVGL
Nature of the assay: told from CCR5 internalization on CD4+ and CD8+ T cells of human PBMC (FACS). The procedure:
(§2) RM and MR induced internalization of CCR5 on T cells is shown in FIGS. 7A and 7B, respectively. Human PBMC were incubated for 30 min at 37° C. with various concentrations of RM (FIG. 7A), MR (FIG. 7B) and RANTES and stained on ice for 1 h with a combination of directly conjugated antibodies against CCR5, CD8 and CD4. Mean channel fluorescence (MCF) of CCR5 was quantified on CD4 and CD8 positive T cells by FACS-analysis. Relative surface expression of CCR5 was calculated as [MCF(exp.)-MCF(negative control)]/[(MCF(medium)-MCF(negative control).
as §2, with “Human” for “RM and MR induced internalization of CCR5 on T cells is shown in FIGS. 7A and 7B, respectively. Human”, “RANTES. Cells were then” for “RANTES and”, “CD4 (CCR5-PE, Pharmingen, CD8-Cychrome, Immunotech and CD4-APC, Immunotech). CD4+ and CD8+ T cells were identified by expression of CD4 and CD8 as well as by their light scatter properties.” for “CD4.”

Assay [2] addresses T1, CD4 on human T cells. As to the kind of experiment: FACS on PBMC, 1 h on ice, detected with anti-6xHis or anti-RANTES (VL-1) antibody. The method, then: as §1

B1: RM construct (RANTES-linker-(VH) anti-CD4-linker-(VL) anti-CD4) (other)
chain: SPYSSDTTPCCFAYIARPLPRAHIKEYFYTSGKCSNPAVVFVTRKNRQVCANPEKKWVREYINSLQMSSGGGGSGGGGSDIQLQQSGPELVKPGASVKMSCKASGYTFTDYVINWVKQRTGQGLEWIGEIYPGSGSDYYNENLKDKATLTADKSSNTAYMQLSSLTSEDSAVYFCARKGENGNSLAFAYWGQGTLVTVSAGGGGSGGGGSGGGGDIVLTQSPASLAVSLGQRATISCKASQSVDYDGDSYMNWYQQKSGQPPKLLIYAASNLESGIPARFSGSGSGTDFTLNIHPVEEEDAATYYCQQSIQDPCTFGGGTELEIKHHHHHH
notes: also called RANTES-antiCD4; RANTES-anti-CD4
Turning to B1, the binding result with CD4 on human T cells [1] and with human CCR5 was “binds” throughout.

B2: MR construct ((VL) anti-CD4-linker-(VH) anti-CD4-linker-RANTES) (other)
chain: DYKDDDDKDIVLTQSPASLAVSLGQRATISCKASQSVDYDGDSYMNWYQQKSGQPPKLLIYAASNLESGIPARFSGSGSGTDFTLNIHPVEEEDAATYYCQQSIQDPCTFGGGTELEIKGGGGSGGGGSGGGGSQVQLQQSGPELVKPGASVKMSCKASGYTFTDYVINWVKQRTGQGLEWIGEIYPGSGSDYYNENLKDKATLTADKSSNTAYMQLSSLTSEDSAVYFCARKGENGNSLAFAYWGQGTLVTVSAGGGGSGGGGSSPYSSDTTPCCFAYIARPLPRAHIKEYFYTSGKCSNPAVVFVTRKNRQVCANPEKKWVREYINSLQMSHHHHHH
notes: Expressed in the periplasm of E. coli and also in CHO cells; also called antiCD4-RANTES
As to B2, the binding result with human CCR5 and in the assay with CD4 on human T cells [2] was “binds” throughout.

The record behind these values is patent US20060078537A1 (published 2006).
